Marks after values point to notes of the source that are not given here.
Tested on: acute myocardial injury caused by viral (Coxsackie B3) infection in mice
Experiment: Survival of mice infected with Coxsackie B3 virus
Assay type: in vivo, BALB/C mice
Conditions: mice n = 20
Procedure: 0.2 ml of 100×TCID50 CVB3 provided by Zhong Shan Hospital affiliated to Fudan University was injected intra-abdominally and established myocarditis model. Within the following week, the mouse manifested pilo-erection, depilation, emaciation, dullness and death, about half of the tested animals died at the 8th day.
Intravenous injection of the testing drug into the tail vein was carried out the same day of intra-abdominal viral infection in mice, the injection was performed for consecutive 5 days, animal survival rate was monitored, after completion of the experiment, echocardiograph, myocardial pathologic examination, serum troponin determination were carried out.
The death status of model animals in various testing drug group was monitored.
• Normal mice control group, model group and testing drug group were set up; • Normal mice control group (n=10); • Model group (n=20): Prepared buffer solution was injected; • Testing drug group (n=20): […] courses with 20 animals assigned for each group; • Placebo control group (n=20): Intra-abdominal injection of non-CVB3 freeze-thaw cellular supernatant, 0.2 ml/animal. 10.2 Dosage Set Up, Preparation of Testing Drug, Route of Drug Administration, Times of Drug Administration, Concentration and Volume of the Testing Drug • rhNRG-1β was diluted with preparation buffer solution (10 mM PB, 0.2% human serum albumin, 5% mannitol to needed concentration; • Three drug administration groups were set up, intravenous injection for consecutive 3-day, 5-day and 7-day, drug volume for each dose was 0.2 ml/animal; • Drug administration of the model group was intravenous injection into the tail vein of mice, once every day (qd), for consecutive 7 days, drug volume for each dose was 0.2 ml/animal. 7.3 Method of the Experiment 7.3.1 Set Up of Acute Viral Myocariditis Animal Model in Mice

B1: rhNRG-1 β: Recombinant human neuregulin fragment of 61 amino acid (SEQ ID NO:4), 3 disulfide bonds, expressed in E. coli (protein, listed as Homo sapiens)
chain: SHLVKCAEKEKTFCVNGGECFMVKDLSNPSRYLCKCPNEFTGDRCQNYVMASFYKAEELYQ
modifications: disulfide (positions not given here)
Question: What does the source list for B1?
Answer: Numbers of survival animals (5 μg/kg (so in the source) iv qd × 5, 1st day, (I)): 20; Numbers of survival animals (5 μg/kg (so in the source) iv qd × 5, 2nd day, (I)): 20; Numbers of survival animals (5 μg/kg (so in the source) iv qd × 5, 3rd day, (I)): 20; Numbers of survival animals (5 μg/kg (so in the source) iv qd × 5, 4th day, (I)): 19; Numbers of survival animals (5 μg/kg (so in the source) iv qd × 5, 5th day, (I)): 18; Numbers of survival animals (5 μg/kg (so in the source) iv qd × 5, 6th day, (I)): 15; Numbers of survival animals (5 μg/kg (so in the source) iv qd × 5, 7th day, (I)): 13; Numbers of survival animals (5 μg/kg (so in the source) iv qd × 5, killed, (I)): 10; Numbers of survival animals (7.5 μg/kg iv qd × 5, 1st day, (II)): 20; Numbers of survival animals (7.5 μg/kg iv qd × 5, 2nd day, (II)): 20; Numbers of survival animals (7.5 μg/kg iv qd × 5, 3rd day, (II)): 20; Numbers of survival animals (7.5 μg/kg iv qd × 5, 4th day, (II)): 18; Numbers of survival animals (7.5 μg/kg iv qd × 5, 5th day, (II)): 17; Numbers of survival animals (7.5 μg/kg iv qd × 5, 6th day, (II)): 14; Numbers of survival animals (7.5 μg/kg iv qd × 5, 7th day, (II)): 11; Numbers of survival animals (7.5 μg/kg iv qd × 5, killed, (II)): 10; Numbers of survival animals (15 μg/kg iv qd × 5, 1st day, (I)): 20; Numbers of survival animals (15 μg/kg iv qd × 5, 1st day, (II)): 20; Numbers of survival animals (15 μg/kg iv qd × 5, 2nd day, (I)): 20; Numbers of survival animals (15 μg/kg iv qd × 5, 2nd day, (II)): 20; Numbers of survival animals (15 μg/kg iv qd × 5, 3rd day, (I)): 20; Numbers of survival animals (15 μg/kg iv qd × 5, 3rd day, (II)): 20; Numbers of survival animals (15 μg/kg iv qd × 5, 4th day, (I)): 20; Numbers of survival animals (15 μg/kg iv qd × 5, 4th day, (II)): 19; Numbers of survival animals (15 μg/kg iv qd × 5, 5th day, (I)): 19; Numbers of survival animals (15 μg/kg iv qd × 5, 5th day, (II)): 18; Numbers of survival animals (15 μg/kg iv qd × 5, 6th day, (I)): 17; Numbers of survival animals (15 μg/kg iv qd × 5, 6th day, (II)): 16; Numbers of survival animals (15 μg/kg iv qd × 5, 7th day, (I)): 14; Numbers of survival animals (15 μg/kg iv qd × 5, 7th day, (II)): 13; Numbers of survival animals (15 μg/kg iv qd × 5, killed, (I)): 13; Numbers of survival animals (15 μg/kg iv qd × 5, killed, (II)): 13; Number of survival animal (30 μg/kg iv qd × 3, 1st day, (I)): 20; Number of survival animals (30 μg/kg iv qd × 3, 1st day, (II)): 20; Number of survival animal (30 μg/kg iv qd × 3, 2nd day, (I)): 20; Number of survival animals (30 μg/kg iv qd × 3, 2nd day, (II)): 20; Number of survival animal (30 μg/kg iv qd × 3, 3rd day, (I)): 20; Number of survival animals (30 μg/kg iv qd × 3, 3rd day, (II)): 20; Number of survival animal (30 μg/kg iv qd × 3, 4th day, (I)): 19; Number of survival animals (30 μg/kg iv qd × 3, 4th day, (II)): 20; Number of survival animal (30 μg/kg iv qd × 3, 5th day, (I)): 18; Number of survival animals (30 μg/kg iv qd × 3, 5th day, (II)): 19; Number of survival animal (30 μg/kg iv qd × 3, 6th day, (I)): 16; Number of survival animals (30 μg/kg iv qd × 3, 6th day, (II)): 16; Number of survival animal (30 μg/kg iv qd × 3, 7th day, (I)): 14; Number of survival animals (30 μg/kg iv qd × 3, 7th day, (II)): 15; Number of survival animal (30 μg/kg iv qd × 3, killed, (I)): 13; Number of survival animals (30 μg/kg iv qd × 3, killed, (II)): 15; Numbers of survival animals (30 μg/kg iv qd × 5, 1st day, (I)): 20; Numbers of survival animals (30 μg/kg iv qd × 5, 1st day, (II)): 20; Number of survival animal (30 μg/kg iv qd × 5, 1st day, Example 5 (I)): 20; Number of survival animals (30 μg/kg iv qd × 5, 1st day, Example 5 (II)): 20; Numbers of survival animals (30 μg/kg iv qd × 5, 2nd day, (I)): 20; Numbers of survival animals (30 μg/kg iv qd × 5, 2nd day, (II)): 20; Number of survival animal (30 μg/kg iv qd × 5, 2nd day, Example 5 (I)): 20; Number of survival animals (30 μg/kg iv qd × 5, 2nd day, Example 5 (II)): 20; Numbers of survival animals (30 μg/kg iv qd × 5, 3rd day, (I)): 20; Numbers of survival animals (30 μg/kg iv qd × 5, 3rd day, (II)): 20; Number of survival animal (30 μg/kg iv qd × 5, 3rd day, Example 5 (I)): 20; Number of survival animals (30 μg/kg iv qd × 5, 3rd day, Example 5 (II)): 20; Numbers of survival animals (30 μg/kg iv qd × 5, 4th day, (I)): 20; Numbers of survival animals (30 μg/kg iv qd × 5, 4th day, (II)): 20; Number of survival animal (30 μg/kg iv qd × 5, 4th day, Example 5 (I)): 20; Number of survival animals (30 μg/kg iv qd × 5, 4th day, Example 5 (II)): 20; Numbers of survival animals (30 μg/kg iv qd × 5, 5th day, (I)): 20; Numbers of survival animals (30 μg/kg iv qd × 5, 5th day, (II)): 19; Number of survival animal (30 μg/kg iv qd × 5, 5th day, Example 5 (I)): 19; Number of survival animals (30 μg/kg iv qd × 5, 5th day, Example 5 (II)): 19; Numbers of survival animals (30 μg/kg iv qd × 5, 6th day, (I)): 18; Numbers of survival animals (30 μg/kg iv qd × 5, 6th day, (II)): 18; Number of survival animal (30 μg/kg iv qd × 5, 6th day, Example 5 (I)): 19; Number of survival animals (30 μg/kg iv qd × 5, 6th day, Example 5 (II)): 19; Numbers of survival animals (30 μg/kg iv qd × 5, 7th day, (I)): 17; Numbers of survival animals (30 μg/kg iv qd × 5, 7th day, (II)): 17; Number of survival animal (30 μg/kg iv qd × 5, 7th day, Example 5 (I)): 18; Number of survival animals (30 μg/kg iv qd × 5, 7th day, Example 5 (II)): 18; Numbers of survival animals (30 μg/kg iv qd × 5, killed, (I)): 16*; Numbers of survival animals (30 μg/kg iv qd × 5, killed, (II)): 17*; Number of survival animal (30 μg/kg iv qd × 5, killed, Example 5 (I)): 17*; Number of survival animals (30 μg/kg iv qd × 5, killed, Example 5 (II)): 18*; Number of survival animal (30 μg/kg iv qd × 7, 1st day, (I)): 20; Number of survival animals (30 μg/kg iv qd × 7, 1st day, (II)): 20; Number of survival animal (30 μg/kg iv qd × 7, 2nd day, (I)): 20; Number of survival animals (30 μg/kg iv qd × 7, 2nd day, (II)): 20; Number of survival animal (30 μg/kg iv qd × 7, 3rd day, (I)): 20; Number of survival animals (30 μg/kg iv qd × 7, 3rd day, (II)): 20; Number of survival animal (30 μg/kg iv qd × 7, 4th day, (I)): 20; Number of survival animals (30 μg/kg iv qd × 7, 4th day, (II)): 20; Number of survival animal (30 μg/kg iv qd × 7, 5th day, (I)): 20; Number of survival animals (30 μg/kg iv qd × 7, 5th day, (II)): 20; Number of survival animal (30 μg/kg iv qd × 7, 6th day, (I)): 19; Number of survival animals (30 μg/kg iv qd × 7, 6th day, (II)): 19; Number of survival animal (30 μg/kg iv qd × 7, 7th day, (I)): 19

— patent US9555076B2, “Neuregulin based methods and compositions for treating cardiovascular diseases” (Zensun (Shanghai) Science & Technology, Co., Ltd., priority 2002, dated 2017)
